Test results: publication PMC3466176, “Aminopropyltransferases Involved in Polyamine Biosynthesis Localize Preferentially in the Nucleus of Plant Cells” (PLoS ONE, 2012)

Biological target: the molecule itself
Assay: SEC; 50 to 100 µg of each affinity purified His-tagged enzyme alone on Superdex 200 10/300 GL, 0.2 mL/min, 20 mM Tris-HCl pH 7.6, 150 mM NaCl; fractions followed by absorbance at 280 nm

Protein	stoichiometry N
His-tagged recombinant spermine synthase (SPMS) (enzyme, Arabidopsis thaliana, UniProt Q94BN2 1-359, looked up, Arabidopsis spermine synthase (SPMS, At5g53120); The Protease 3C site lies before the start ATG, and no cleavage is reported; The insert has no stop codon, so a C-terminal extension from the vector is likely (surmised); also called recombinant His-tagged aminopropyltransferase) MEGDVGIGLVCQNTMDGKASNGNGLEKTVPSCCLKAMACVPEDDAKCHSTVVSGWFSEPHPRSGKKGGKAVYFNNPMWPGEAHSLKVEKVLFKDKSDFQEVLVFESATYGKVLVLDGIVQLTEKDECAYQEMIAHLPLCSISSPKNVLVVGGGDGGVLREISRHSSVEVIDICEIDKMVIDVSKKFFPELAVGFDDPRVQLHIGDAAEFLRKSPEGKYDAIIVDSSDPVGPALALVEKPFFETLARALKPGGVLCNMAESMWLHTHLIEDMISICRQTFKSVHYAWSSVPTYPSGVIGFVLCSTEGPAVDFKNPINPIEKLDGAMTHKRELKFYNSDMHRAAFALPTFLRREVASLLAS	2
His-tagged recombinant spermidine synthase 2 (SPDS2) (enzyme, Arabidopsis thaliana, UniProt O48661 1-340, looked up, Arabidopsis spermidine synthase 2 (SPDS2, At1g70310); The Protease 3C site lies before the start ATG, and no cleavage is reported; The insert has no stop codon, so a C-terminal extension from the vector is likely (surmised); also called recombinant His-tagged aminopropyltransferase) MSSTQEASVTDLPVKRPREAEEDNNGGAMETENGGGEIKEPSCMSSIIPGWFSEISPMWPGEAHSLKVEKILFQGKSDYQDVIVFQSATYGKVLVLDGVIQLTERDECAYQEMITHLPLCSISNPKKVLVIGGGDGGVLREVARHSSVEQIDICEIDKMVVDVAKQYFPNVAVGYEDPRVNLIIGDGVAFLKNAAEGTYDAVIVDSSDPIGPAKELFEKPFFESVNRALRPGGVVCTQAESLWLHMDIIEDIVSNCRDIFKGSVNYAWTSVPTYPSGVIGFMLCSSEGPQVDFKKPVSLIDTDESSIKSHCPLKYYNAEIHSAAFCLPSFAKKVIDSKAN	2
His-tagged recombinant spermidine synthase 1 (SPDS1) (enzyme, Arabidopsis thaliana, UniProt Q9ZUB3 1-334, looked up, Arabidopsis spermidine synthase 1 (SPDS1, At1g23820); The insert has no stop codon, so a C-terminal extension from the vector is likely (surmised); also called recombinant His-tagged aminopropyltransferase) MDAKETSATDLKRPREEDDNGGAATMETENGDQKKEPACFSTVIPGWFSEMSPMWPGEAHSLKVEKVLFQGKSDYQDVIVFQSATYGKVLVLDGVIQLTERDECAYQEMITHLPLCSIPNPKKVLVIGGGDGGVLREVARHASIEQIDMCEIDKMVVDVSKQFFPDVAIGYEDPRVNLVIGDGVAFLKNAAEGSYDAVIVDSSDPIGPAKELFEKPFFQSVARALRPGGVVCTQAESLWLHMDIIEDIVSNCREIFKGSVNYAWTSVPTYPSGVIGFMLCSTEGPDVDFKHPLNPIDESSSKSNGPLKFYNAEIHSAAFCLPSFAKKVIESKAN	2
